The binders below were run against CXCR4-RLuc (chemokine (C-X-C motif) receptor 4 with Renilla reniformis luciferase at the C-terminus) (UniProt P61073 1-352) (assay: FRET or BRET).
CXCR4-RLuc (chemokine (C-X-C motif) receptor 4 with Renilla reniformis luciferase at the C-terminus), sequence (P61073 whole entry): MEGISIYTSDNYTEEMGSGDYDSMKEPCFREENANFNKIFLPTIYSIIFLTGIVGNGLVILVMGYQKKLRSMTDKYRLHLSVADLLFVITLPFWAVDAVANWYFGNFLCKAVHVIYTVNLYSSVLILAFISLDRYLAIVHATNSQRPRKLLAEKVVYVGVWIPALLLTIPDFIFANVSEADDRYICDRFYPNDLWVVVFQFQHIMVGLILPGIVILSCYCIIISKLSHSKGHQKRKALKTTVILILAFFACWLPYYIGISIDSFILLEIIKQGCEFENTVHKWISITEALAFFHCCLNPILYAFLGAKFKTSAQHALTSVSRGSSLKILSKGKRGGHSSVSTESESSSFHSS

| BRET50 (EYFP/Lum) | Binder |
| --- | --- |
| 0.051 | α1d-AR-EYFP (α1d-adrenergic receptor with enhanced yellow fluorescent protein at the C-terminus) (receptor, UniProt P25100 1-572, looked up) MTFRDLLSVSFEGPRPDSSAGGSSAGGGGGSAGGAAPSEGPAVGGVPGGAGGGGGVVGAGSGEDNRSSAGEPGSAGAGGDVNGTAAVGGLVVSAQGVGVGVFLAAFILMAVAGNLLVILSVACNRHLQTVTNYFIVNLAVADLLLSATVLPFSATMEVLGFWAFGRAFCDVWAAVDVLCCTASILSLCTISVDRYVGVRHSLKYPAIMTERKAAAILALLWVVALVVSVGPLLGWKEPVPPDERFCGITEEAGYAVFSSVCSFYLPMAVIVVMYCRVYVVARSTTRSLEAGVKRERGKASEVVLRIHCRGAATGADGAHGMRSAKGHTFRSSLSVRLLKFSREKKAAKTLAIVVGVFVLCWFPFFFVLPLGSLFPQLKPSEGVFKVIFWLGYFNSCVNPLIYPCSSREFKRAFLRLLRCQCRRRRRRRPLWRVYGHHWRASTSGLRQDCAPSSGDAPPGAPLALTALPDPDPEPPGTPEMQAPVASRRKPPSAFREWRLLGPFRRPTTQLRAKVSSLSHKIRAGGAQRAEAACAQRSEVEAVSLGVPHEVAEGATCQAYELADYSNLRETDI |
| 0.055 | α1a-AR-EYFP (α1a-adrenergic receptor with enhanced yellow fluorescent protein at the C-terminus) (receptor, UniProt P35348 1-466, looked up) MVFLSGNASDSSNCTQPPAPVNISKAILLGVILGGLILFGVLGNILVILSVACHRHLHSVTHYYIVNLAVADLLLTSTVLPFSAIFEVLGYWAFGRVFCNIWAAVDVLCCTASIMGLCIISIDRYIGVSYPLRYPTIVTQRRGLMALLCVWALSLVISIGPLFGWRQPAPEDETICQINEEPGYVLFSALGSFYLPLAIILVMYCRVYVVAKRESRGLKSGLKTDKSDSEQVTLRIHRKNAPAGGSGMASAKTKTHFSVRLLKFSREKKAAKTLGIVVGCFVLCWLPFFLVMPIGSFFPDFKPSETVFKIVFWLGYLNSCINPIIYPCSSQEFKKAFQNVLRIQCLCRKQSSKHALGYTLHPPSQAVEGQHKDMVRIPVGSRETFYRISKTDGVCEWKFFSSMPRGSARITVSKDQSSCTTARVRSKSFLQVCCCVGPSTPSLDKNHQVPTIKVHTISLSENGEEV |
| 0.072 | α1b-AR-EYFP (α1b-adrenergic receptor with enhanced yellow fluorescent protein at the C-terminus) (receptor, UniProt P35368 1-520, looked up) MNPDLDTGHNTSAPAHWGELKNANFTGPNQTSSNSTLPQLDITRAISVGLVLGAFILFAIVGNILVILSVACNRHLRTPTNYFIVNLAMADLLLSFTVLPFSAALEVLGYWVLGRIFCDIWAAVDVLCCTASILSLCAISIDRYIGVRYSLQYPTLVTRRKAILALLSVWVLSTVISIGPLLGWKEPAPNDDKECGVTEEPFYALFSSLGSFYIPLAVILVMYCRVYIVAKRTTKNLEAGVMKEMSNSKELTLRIHSKNFHEDTLSSTKAKGHNPRSSIAVKLFKFSREKKAAKTLGIVVGMFILCWLPFFIALPLGSLFSTLKPPDAVFKVVFWLGYFNSCLNPIIYPCSSKEFKRAFVRILGCQCRGRGRRRRRRRRRLGGCAYTYRPWTRGGSLERSQSRKDSLDDSGSCLSGSQRTLPSASPSPGYLGRGAPPPVELCAFPEWKAPGALLSLPAPEPPGRRGRHDSGPLFTFKLLTEPESPGTDGGASNGGCEAAADVANGQPGFKSNMPLAPGQF |
